pKd: −log10 of the molar value. Several values for one entry are separate records, joined by “and”; a condition that tells them apart may be missing. Equal values may be shown once.
Experiments:
Test in all cases: EMSA
Conditions in all cases: 25 mM Tris pH 8.0, 100 mM KCl, 10 mM MgCl2, 10% glycerol, 1 mM TCEP, +/- 5 mM ATP-MgOAc2, 20 pM dsRNA, 30 min at 4 C; 5% native PAGE in 0.5x TBE at 4 C
[1] = system: AncD1D2 HEL-DUF (reconstructed ancestor (animal Dicer-1/Dicer-2, ML tree))
[2] = system: AncD1DEUT HEL-DUF (reconstructed ancestor (deuterostome Dicer-1, ML tree))
[3] = system: AncD1LOPH/DEUT HEL-DUF (reconstructed ancestor (lophotrochozoan/deuterostome Dicer-1, ML tree))
[4] = system: AncD1ARTH/LOPH/DEUT HEL-DUF (reconstructed ancestor (arthropod/lophotrochozoan/deuterostome Dicer-1, ML tree))
[5] = system: AncD1VERT HEL-DUF (reconstructed ancestor (vertebrate Dicer-1, ML tree))

With “GGGAAGCUCAGAAUAUUGCACAAGUAGAGCUUCUCGAUCCCC / GGGGAUCGAGAAGCUCUACUUGUGCAAUAUUCUGAGCUUCCC [42-bp BLT dsRNA]” the pKd [1] was 8.47 and 8.19, the pKd [2] was 6.84 and 6.88 and the pKd [3] was 7.42 and 7.22. The pKd [4] was 7.62 and 7.76 and the pKd [5] was 6.30 and 6.23.

For “GGGAAGCUCAGAAUAUUGCACAAGUAGAGCUUCUCGAUCCCC / GGAUCGAGAAGCUCUACUUGUGCAAUAUUCUGAGCUUCCCGG [42-bp 3'ovr dsRNA]”, the pKd [1] was 8.19 and 7.80, the pKd [2] was 6.85 and 6.82 and the pKd [3] was 7.31 and 7.04. The pKd [4] was 7.40 and 7.76 and the pKd [5] was 6.27 and 6.30.
